B1: Prolactin, P01236 (parent)
chain: MNIKGSPWKGSLLLLLVSNLLLCQSVAPLPICPGGAARCQVTLRDLFDRAVVLSHYIHNLSSEMFSEFDKRYTHGRGFITKAINSCHTSSLATPEDKEQAQQMNQKDFLSLIVSILRSWNEPLYHLVTEVRGMQEAPEAILSKAVEIEEQTKRLLEGMELIVSQVHPETKENEIYPVWSGLPSLQMADEESRLSAYYNLLHCLRRDSHKIDNYLKLLKCRIIHNNNC

Variants of: B1
Details: Homo sapiens, 25 °C, Urea, Fluorescence, Potassium phosphate 25 mM, NaCl 25 mM, reversible: Yes, structure 2Q98, whole UniProt chain shown

Variant	ddG of mutation (higher = less stable) (pH 5.8)	denaturant m value (pH 5.8)	denaturant midpoint (higher = more stable) (pH 5.8)	unfolding free energy (pH 5.8)	ddG of mutation (higher = less stable) (pH 7.8)	denaturant m value (pH 7.8)	denaturant midpoint (higher = more stable) (pH 7.8)	unfolding free energy (pH 7.8)
H55A	-0.09 kcal/mol	0.77 kcal/mol/M	5.71 M	4.39 kcal/mol				
H55A H58A H208A	-3.41 kcal/mol	1.16 kcal/mol/M	6.67 M	7.71 kcal/mol	-3.11 kcal/mol	1.59 kcal/mol/M	7.1 M	11.3 kcal/mol
H55A H208A	-2.06 kcal/mol	1.05 kcal/mol/M	6.08 M	6.36 kcal/mol	-2.57 kcal/mol	1.62 kcal/mol/M	6.64 M	10.8 kcal/mol
H58A	-3.1 kcal/mol	1.2 kcal/mol/M	6.18 M	7.4 kcal/mol	-2.05 kcal/mol	1.51 kcal/mol/M	6.79 M	10.2 kcal/mol
H58A H201A	-3.7 kcal/mol	1.19 kcal/mol/M	6.7 M	8 kcal/mol	-1.53 kcal/mol	1.49 kcal/mol/M	6.53 M	9.73 kcal/mol
H58A H201A H208A	-3.98 kcal/mol	1.22 kcal/mol/M	6.81 M	8.28 kcal/mol	-0.87 kcal/mol	1.31 kcal/mol/M	6.94 M	9.07 kcal/mol
H58A H208A	-3.06 kcal/mol	1.17 kcal/mol/M	6.31 M	7.36 kcal/mol				
H74A	0.11 kcal/mol	0.81 kcal/mol/M	5.14 M	4.19 kcal/mol	-1.55 kcal/mol	1.58 kcal/mol/M	6.19 M	9.75 kcal/mol
H87A	-2.26 kcal/mol	1.13 kcal/mol/M	5.81 M	6.56 kcal/mol	0.02 kcal/mol	1.35 kcal/mol/M	6.08 M	8.18 kcal/mol
H125A	-1.07 kcal/mol	0.94 kcal/mol/M	5.72 M	5.37 kcal/mol	-0.33 kcal/mol	1.4 kcal/mol/M	6.1 M	8.53 kcal/mol
H166A	-2.04 kcal/mol	1.08 kcal/mol/M	5.87 M	6.34 kcal/mol	-0.58 kcal/mol	1.38 kcal/mol/M	6.38 M	8.78 kcal/mol
H201A	-0.24 kcal/mol	0.76 kcal/mol/M	5.98 M	4.54 kcal/mol	0.35 kcal/mol	1.26 kcal/mol/M	6.22 M	7.85 kcal/mol
H201A H208A	-1.71 kcal/mol	0.93 kcal/mol/M	6.49 M	6.01 kcal/mol	0.41 kcal/mol	1.17 kcal/mol/M	6.66 M	7.79 kcal/mol
H208A	-1.39 kcal/mol	0.96 kcal/mol/M	5.94 M	5.69 kcal/mol	0.04 kcal/mol	1.28 kcal/mol/M	6.36 M	8.16 kcal/mol
H223A	0.03 kcal/mol	0.81 kcal/mol/M	5.29 M	4.27 kcal/mol	-0.12 kcal/mol	1.42 kcal/mol/M	5.85 M	8.32 kcal/mol
H55A H58A					-1.42 kcal/mol	1.39 kcal/mol/M	6.94 M	9.62 kcal/mol

— FireProtDB (doi:10.1002/pro.100)
